This is an account of results in patent US20230137032A1 (GlaxoSmithKline, published 2023).

In test [1] the target is T1, human BCMA expressed on cells (human, UniProt Q02223 1-184).
T1 construct: whole, on cells; also called human BCMA HEK293; ARH77-hBCMA 10B5 BCMA expressing transfectant cells
T1 sequence (looked up): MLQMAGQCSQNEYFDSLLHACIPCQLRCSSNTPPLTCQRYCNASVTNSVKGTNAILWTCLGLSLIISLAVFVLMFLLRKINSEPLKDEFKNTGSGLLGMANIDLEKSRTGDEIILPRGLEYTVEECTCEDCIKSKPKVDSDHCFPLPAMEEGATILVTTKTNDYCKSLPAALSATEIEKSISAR
Put plainly: FACS on H929 multiple myeloma cells, PE anti-mouse IgG. How it is done: (§1) Cells were incubated for 20 mins at room temperature (RT) and then washed with FACS buffer (PBS+0.5% BSA+0.1% sodium azide) to remove unbound antibody. Cells were incubated with a secondary PE labelled anti-mouse IgG antibody for 15 minutes at RT and then washed with FACS buffer to remove unbound antibody. Cells were analysed by FACS to detect antibody bound to the cells.

Test [2] addresses T2, recombinant cyno BCMA, in house material (cyno, UniProt A0A2K5UD97 4-52).
T2 construct: also called Cyno in house BCMA
Description: ProteOn SPR run 2, antibody captured on Protein A, 25C.

Test [3] has as its target T3, recombinant human BCMA, in house material (human, UniProt Q02223 4-53, limits assumed).
T3 construct: also called Human in house BCMA; In house human BCMA
The test is described as above.

In test [4] the target is T3, recombinant human BCMA, in house …. Description: ProteOn SPR, antibody captured on Protein A, 25C. As for the experimental part:
The initial screen of the new chimeric variants from the second batch of hybridomas was carried out on the ProteOn XPR36 (Biorad). The method was as follows; Protein A was immobilised on a GLM chip (Biorad, Cat No: 176-5012) by primary amine coupling, anti-BCMA variants were then captured on this surface and recombinant human BCMA (in house material) passed over at 256, 64, 16, 4, 1 nM with a 0 nM injection (i.e. buffer alone) used to double reference the binding curves, the buffer used is the HBS-EP buffer. Regeneration of the capture surface was carried out using 50 mM NaOH. The data was fitted to the 1:1 model using the analysis software inherent to the ProteOn XPR36. The run was carried out at 25° C.

Test [5] deals with T1, human BCMA expressed on cells. Description: FACS on ARH77-hBCMA 10B5 transfectant cells, antibody 5 µg/mL, PE anti-mouse IgG. How it is done: as §1

T2 sequence (A0A2K5UD97 entry or part of it): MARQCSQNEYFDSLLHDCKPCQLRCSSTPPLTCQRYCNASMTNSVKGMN

B1: murine S307118G03 (antibody, IgG2a, V domains shown)
VH: EVQLQQSGPELVKPGASVKISCKASGYTFTDYYMKWVKQSHGKSLEWIGEIYPNNGGITYNQKFKGKATLTVDKSSSTAYMELRSLTSEDSAVYYCANGYEFVYWGQGTLVTVSA
VL: DIQMTQTASSLSASLGDRVTISCSASQGISNYLNWYQQKPDGTVKLLIYYTSSLHSGVPSRFSGSGSGTDYSLTISNLEPEDIATYYCQQYSKLPWTFGGGTKLEIKR
notes: Murine hybridoma antibody; also called S307118G03 (murine parental mAb)
Regarding B1, in test [1], the binding result is on record as “binds”.

B2: S307118G03 H5L1 (antibody, human IgG1, kappa, V domains shown)
VH: QVQLVQSGAEVKKPGSSVKVSCKASGYTFTDYYMKWVRQAPGQGLEWIGEIYPNNGGITYNQKFKGRATLTVDKSTSTAYMELSSLRSEDTAVYYCANGYEFDYWGQGTLVTVSS
VL: DIQMTQSPSSLSASVGDRVTITCSASQGISNYLNWYQQKPGKAPKLLIYYTSSLHSGVPSRFSGSGSGTDYTLTISSLQPEDFATYYCQQYSKLPWTFGQGTKLEIKR
notes: Humanised, human IgG1 kappa; also called S307118G03 humanised H5L1
For the molecule B2, the binding result in test [2] is listed as “no binding”; in test [3], “no binding (tested: up to 256 nM)”.

B3: S322110D07 chimeric antibody (printed S332110D07 in Table 12) (antibody, human IgG1, kappa, V domains shown)
VH: EVQLQQSGPELVKPGTSVKIPCKTSGYIFTDYSIDWVKQSHGKSLEWIGDIDPNYGDPIYNHKFKGKATLTVDRSSSTAYMELRSLTSEDTAVYFCARRATGTDWFAFWGQGTLVTVSS
VL: DIQMTQSPASLSVSVGETVTITCRASENIYNNLAWYQQKQGKSPQLLVYAATILADGVPSRFSGSGSGTQYSLKINSLQSGDFGTYYCQHFWGTPLTFGAGTKLELKR
notes: Section 4.10 says that the samples are new chimeric constructs (human IgG1 kappa); also called chimeric S322110D07
In the case of B3, the Kd in test [4] amounted to 0.0121 µM.

B4: murine S332126E04 (antibody, V domains shown)
VH: QVQLQQPGAELVKPGASVKLSCKASGYTFTNYWMHWVKQRPGQGLEWIGIIHPNSGSTNYNEKFKSKATLTVDKSSSTAYMQLSSLTSEDSAVYYCARGIYDYPFAYWGQGTLVTVSS
VL: DIVLTQSPASLAVSLGQRATISCRASESVSIHGTHLMHWYQQKPGQPPKLLIYAASNLESGVPARFSGSGSETDFTLNIHPVEEEDAATYFCQQSIEDPYTFGGGTKLEIKR
notes: Murine hybridoma antibody
Turning to B4, the binding result in test [5] is “binds”.

B5: S332121F02 chimeric antibody (antibody, human IgG1, kappa, V domains shown)
VH: EVQLQQSGPVLVKPGASVKMSCEASGYTFTDYYMNWVKQSHGKTLEWIGVINPYNGGTDYNQKFKGKATLTVDKSSSTAYMELNSLTSEDSAVYYCARSVYDYPFDYWGQGTLVTVSS
VL: DIVLTQSPASLAVSLGQRATISCRASESVSIHGTHLMHWYQQKPGQPPKLLIYAASNLESGVPARFSGSGSETDFTLNIHPVEEEDAATYFCQQSIEDPRTFGGGTKLEIKR
notes: Section 4.10 says that the samples are new chimeric constructs (human IgG1 kappa)
As to B5, in test [4], the Kd came to 0.0173 µM.
